Consider two compounds from publication PMC3400614, “Cofactor Binding Protects Flavodoxin against Oxidative Stress” (PLoS ONE, 2012).

Assay [1] has as its target T1, flavodoxin II (flavodoxin; apoflavodoxin) (Azotobacter vinelandii, UniProt P00324).
T1 construct: gene nifF; full-length wild type, 179 residues, expressed in E. coli TG2 (pAV34); monomer; apoprotein made by TCA precipitation
Briefly: native nano-electrospray mass spectrometry. The format is binding. Particulars: non-covalent, one FMN per monomer; 50 mM ammonium acetate, 0.1 mM EDTA, pH 6.8.

Assay [2] has as its target Apoflavodoxin (A. vinelandii flavodoxin II without FMN cofactor) (Azotobacter vinelandii) (UniProt P00324). Description: LC-MS; reversed phase (acetonitrile, TFA) and electrospray MS; protein 5 µM after 30 min at room temperature with 10 or 100 mM H2O2, with or without 190-200 µM NBD-Cl; denaturing, shows covalent dimers only.
The target is the same in assay [3]. Briefly: anion exchange chromatography; MonoQ HR5/5, 25 mM Tris-HCl pH 8.0, KCl gradient, 1.0 mL/min, 25°C; apoflavodoxin 50 μM left without DTT.
Assay [4] has the same target. Description: SEC; data not shown; apoflavodoxin freshly prepared and during storage.
Assay [5] has the same target. Description: SEC; Superdex 75 HR 10/30, 0.5 mL/min, 25°C; apoprotein (38 μM wild type, 79 μM C69A) fresh and after 22-24 h with 10 mM H2O2 at 4°C; DTT removed before. (Size exclusion chromatography separates by hydrodynamic size, large species first.)

T1 sequence (P00324 2-180): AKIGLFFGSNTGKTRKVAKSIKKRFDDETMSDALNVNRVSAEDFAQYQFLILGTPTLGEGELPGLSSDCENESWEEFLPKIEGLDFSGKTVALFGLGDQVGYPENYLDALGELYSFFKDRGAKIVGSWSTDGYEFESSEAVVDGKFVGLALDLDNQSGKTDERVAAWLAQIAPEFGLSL

With `Cc1cc2nc3c(=O)[nH]c(=O)nc-3n(C[C@H](O)[C@H](O)[C@H](O)COP(=O)(O)O)c2cc1C` [FMN], in assay [1], the “native nano-electrospray mass spectrometry” value is recorded as “flavodoxin indeed contains a single, non-covalently bound, FMN cofactor”.
Take “Apoflavodoxin (A. vinelandii flavodoxin II without FMN cofactor) (from UniProt P00324 1-180) (natural protein)”: the stoichiometry N in assay [2], in assay [3], in assay [4] and in assay [5] was 2 in each case.
